Results reported in patent publication US20110301332A1 (CEPHALON AUSTRALIA VIC, published 2011).
No end group written: not given here.

B4: human PAMP (13-20) (peptide)
peptide: WNKWALSR
modifications: ends and bridges not checked
notes: also called N-terminally truncated human PAMP, residues 13-20; C-terminal-most 8 residues of PAMP
B5: monoclonal antibody EGX-P-E9 (antibody, V domains shown)
VH: EVQLQQSGAELVRSGASVKLSCTASGFNIKDYYIHWVKQGPEQGLEWVGYIDPENGETAYAPKFQGKATLTADTSSNTAYLQLISLTSEDTAVYYCNAPYFSLGRNYWGQGTTLTVSS
VL: NVLMTQTPLSLPVSLGDQASISCRSSQSIVHGNGDTYLEWYLQKPGQSPKLLIYKVSNRFSGVPDRFSGSGSGTDFTLKIRRVEAEDLGVYYCFQGSHVPLTFGAGTKLELK
notes: Mouse IgG purified from hybridoma medium with Protein G; also called anti-PAMP EGX-P-E9 IgG; antibody of hybridoma clone PTA-7958

Experiments:
[1] = molecular target: B5; test: competitive ELISA: EGX-P-E9-coated wells, 10 nM biotinylated human full-length PAMP plus 1 µM (100x) unlabeled competitor peptide, streptavidin-peroxidase, OD
Experimental: (§1) The activity of the purified monoclonal antibody EGX-P-E9 was examined by ELISA (Enzyme Linked Immunosorbent Assay, FIG. 1). Wells of a 96-well microtiter plate were coated with 5 μg/ml anti-PAMP EGX-P-E9 IgG diluted in PBS for several hours. After washing wells with PBS, the coated wells were then incubated with a skim milk-PBS solution (Milk/PBS) to block non-specific antigen-binding. To determine the EC50, an estimate of the dissociation constant, various concentration (12 μM to 2 μM in Milk/PBS) of biothinylated human PAMP (biotinylated to an added N-terminal cysteine) was incubated in EGX-P-E9-coated wells. After washing wells with PBS+0.05% Tween 20 (PBST), the EGX-P-E9-biotin-PAMP complex was captured by the streptavidin-peroxidase conjugate and quantified by measuring the A450 using the peroxidase substrate TMB fluorescent reagent (Sigma Aldrich) and Benchmark microplate reader (BioRad).
The specificity of anti-PAMP EGX-P-E9 was also tested by ELISA with competitor PAMP peptides (FIG. 2). Antibody EGX-P-E9-coated wells were loaded with 10 nM biotinylated human full-length PAMP in Milk/PBS supplemented with one hundred fold excess (1 μM) of the following unlabeled competitor PAMP peptides: Rat PAMP, mouse PAMP, human full length PAMP (hum FL), and various N-terminally truncated human PAMPs (containing only residues 8-20, 10-20, 12-20 or 13-20). Quantification of the EGX-P-E9-biotin-PAMP complex was done as described above.

human PAMP (13-20) = molecular target: B4; test: competition ELISA with truncated PAMP peptides
Experimental: as §1
The specificity of anti-PAMP EGX-P-E9 was also tested by ELISA with competitor PAMP peptides (FIG. 2). […] Quantification of the EGX-P-E9-biotin-PAMP complex was done as described above.

[2] = molecular target: T1, biotinylated human PAMP (biotinylated to an added N-terminal cysteine) (human, not fully specified; biotin on the added N-terminal cysteine; C-terminal amide); test: ELISA, antibody-coated wells, titration of biotinylated human PAMP, streptavidin-peroxidase detection
T1 construct: also called biotin-PAMP; biotinylated human full-length PAMP
T1 peptide: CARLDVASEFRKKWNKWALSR
Experimental: as §1

[3] = molecular target: B5; test: competition ELISA, non-biotinylated PAMP against 6.2 nM biotinylated PAMP on EGX-P-E9-coated wells
Experimental: as §1
To confirm the affinity for PAMP, IC50 values were determined by competing the binding of the EGX-P-E9 antibody to the biotinylated PAMP with native (non-biotinylated) human PAMP. […] After washing the wells with PBST, the EGX-P-E9-biotin-PAMP complex was detected using the streptavidin-peroxidase conjugate and quantified by measuring the A450 using the peroxidase substrate TMB fluorescent reagent (Sigma Aldrich) and Benchmark microplate reader (BioRad) as above.

B1: human PAMP (8-20) (peptide)
peptide: EFRKKWNKWALSR
modifications: ends and bridges not checked
notes: also called N-terminally truncated human PAMP, residues 8-20
B1: binds [1].

B2: human PAMP (10-20) (peptide)
peptide: RKKWNKWALSR
modifications: ends and bridges not checked
notes: also called N-terminally truncated human PAMP, residues 10-20
B2: binds [1].

B3: human PAMP (12-20) (peptide)
peptide: KWNKWALSR
modifications: not fully specified (C-terminus); ends and bridges not checked
notes: also called N-terminally truncated human PAMP, residues 12-20
B3: binds [1].

B4: binds [1].

ARLDTSSQFRKKWNKWALSR-NH2 [Rat PAMP]: binds [1].

AGPDTPSQFRKKWNKWALSR-NH2 [mouse PAMP]: binds [1].

In the case of B5, the binding result (human PAMP (13-20)) is reported as “binds” and the EC50 [2] is reported as 6.2 nM.

B6: native (non-biotinylated) human PAMP (peptide)
peptide: ARLDVASEFRKKWNKWALSR-NH2
notes: also called human full length PAMP; hum FL
An IC50 [3] of 4 nM was found for B6 in this work.
